Results: patent US20180044434A1 (PUBLIC UNIVERSITY CORPORATION YOKOHAMA CITY UNIVERSITY, published 2018)
Changes are numbered by the printed parent chain. Where two headings read alike, the source gives them in different places. Blank lines part the entries; values can stand above or below the binder they belong to.

Assays:
[1] = target: T1, full-length recombinant human PAD4 (human, UniProt Q9UM07 1-663); assay: ELISA, immobilized human PAD4
T1 construct: Full-length recombinant; also called peptidylarginine deiminase 4
T1 sequence (Q9UM07 whole entry): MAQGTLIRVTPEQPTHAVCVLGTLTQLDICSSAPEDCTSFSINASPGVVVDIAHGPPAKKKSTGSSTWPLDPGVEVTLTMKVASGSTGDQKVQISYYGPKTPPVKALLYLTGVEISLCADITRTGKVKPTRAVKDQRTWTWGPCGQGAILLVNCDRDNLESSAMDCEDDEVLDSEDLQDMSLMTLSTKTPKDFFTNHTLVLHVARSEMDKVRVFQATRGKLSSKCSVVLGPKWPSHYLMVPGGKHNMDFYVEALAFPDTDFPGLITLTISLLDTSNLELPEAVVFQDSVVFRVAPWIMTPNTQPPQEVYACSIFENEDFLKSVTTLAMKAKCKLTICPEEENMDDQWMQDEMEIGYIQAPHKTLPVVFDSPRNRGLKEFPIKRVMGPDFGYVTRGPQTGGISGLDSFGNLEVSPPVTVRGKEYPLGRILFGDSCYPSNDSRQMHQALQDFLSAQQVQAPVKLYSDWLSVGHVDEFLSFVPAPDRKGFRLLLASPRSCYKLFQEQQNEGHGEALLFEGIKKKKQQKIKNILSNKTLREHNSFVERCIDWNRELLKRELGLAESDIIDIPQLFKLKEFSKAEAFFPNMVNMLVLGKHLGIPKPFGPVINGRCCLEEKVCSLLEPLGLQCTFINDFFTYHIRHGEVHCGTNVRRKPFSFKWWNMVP

[2] = target: T1, full-length recombinant human PAD4; assay: ELISA, immobilized human PAD4; remark: listed apart in the source
[3] = target: T1, full-length recombinant human PAD4; assay: SPR (Biacore T200), antibody captured, human PAD4 analyte
Excerpt: The humanized anti-PAD4 antibodies derived from G8 and H7 were subjected to Biacore (GE Healthcare, Biacore T200) assay to evaluate their affinity. At that time, the combination of the frameworks was such that the H-chain framework was H4.00 and the L-chain framework was L4.29. The class of each antibody used was IgG1κ. Full-length recombinant human PAD4 was used as an antigen. A Human Antibody Capture kit (GE Healthcare, BR-1008-39) was used for the affinity assay. Specifically, in accordance with the standard protocol provided by the manufacture, NHS/EDC was used and an amine coupling method, in which a free carboxyl group is fixed on a surface of a CM5 chip, was used to immobilize a rabbit anti-human polyclonal antibody on the surface of a CM5 chip. Next, the humanized anti-PAD4 antibodies were each captured by the rabbit anti-human polyclonal antibody. Human PAD4 at each concentration was subjected to Biacore T200 measurement to create a kinetic sensorgram.

[4] = target: T1, full-length recombinant human PAD4; assay: ELISA, immobilized human PAD4; remark: listed apart in the source
[5] = target: T1, full-length recombinant human PAD4; assay: ELISA, immobilized human PAD4; remark: listed apart in the source

EC50 (read off the curve) [1]: ~80 ng/mL
O.D. 490/630 at 0.0078125 µg/mL [2]: 0.131
O.D. 490/630 at 0.015625 µg/mL [2]: 0.247
O.D. 490/630 at 0.03125 µg/mL [2]: 0.454
O.D. 490/630 at 0.0625 µg/mL [2]: 0.806
O.D. 490/630 at 0.125 µg/mL [2]: 1.31
O.D. 490/630 at 0.25 µg/mL [2]: 1.7
O.D. 490/630 at 0.5 µg/mL [2]: 1.84
O.D. 490/630 at 1 µg/mL [2]: 1.88
B1: humanized anti-PAD4 antibody derived from G8, VH H4.00 / VL L4.00 (antibody, human IgG1, kappa, V domains shown)
VH: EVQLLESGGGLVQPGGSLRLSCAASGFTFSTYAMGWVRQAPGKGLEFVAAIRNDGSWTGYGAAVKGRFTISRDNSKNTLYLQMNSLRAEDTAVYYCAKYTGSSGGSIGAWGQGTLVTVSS
VL: SYELTQPPSVSVSPGQTARITCSGGNRNYYYGWYQQKPGQAPVLVIYANDKRPSGIPERFSGSSSGTTVTLTISGVQAEDEADYYCGTADTGKYVFGGGTKLTVLG
notes: IgG1 kappa; also called G8 H4.00/L4.00

O.D. 490/630 at 0.0078125 µg/mL [2]: 1.26
O.D. 490/630 at 0.015625 µg/mL [2]: 1.69
O.D. 490/630 at 0.03125 µg/mL [2]: 1.88
O.D. 490/630 at 0.0625 µg/mL [2]: 1.9
O.D. 490/630 at 0.125 µg/mL [2]: 1.89
O.D. 490/630 at 0.25 µg/mL [2]: 1.85
O.D. 490/630 at 0.5 µg/mL [2]: 1.84
O.D. 490/630 at 1 µg/mL [2]: 1.84
B2: humanized anti-PAD4 antibody derived from G8, VH H4.32 / VL L4.29 (antibody, IgG1, V domains shown)
VH: EVQLLESGGGLVQPGGSLRLSCAASGFTFSTYAMGWVRQAPGKGLEFVAAIRNDGSWTGYGAAVKGRVTISRDNSKNTVYLQMNSLRAEDTAVYYCAKYTGSSGGSIGAWGQGTLVTVSS
VL: B1 VL with L44T, S64N, T67S, V69T
notes: IgG1 kappa; also called G8 H4.32/L4.29

EC50 (read off the curve) [4]: ~3 ng/mL
O.D. 490/630 at 0 µg/mL (blank) [4]: 0.069
O.D. 490/630 at 0.000064 µg/mL [4]: 0.116
O.D. 490/630 at 0.00032 µg/mL [4]: 0.252
O.D. 490/630 at 0.0016 µg/mL [4]: 0.785
O.D. 490/630 at 0.008 µg/mL [4]: 1.66
O.D. 490/630 at 0.04 µg/mL [4]: 2.09
O.D. 490/630 at 0.2 µg/mL [4]: 2.03
O.D. 490/630 at 1 µg/mL [4]: 2.06
B7: humanized anti-PAD4 antibody derived from G9 (H4.00/L4.29, IgG1 kappa) (antibody, V domains shown)
VH: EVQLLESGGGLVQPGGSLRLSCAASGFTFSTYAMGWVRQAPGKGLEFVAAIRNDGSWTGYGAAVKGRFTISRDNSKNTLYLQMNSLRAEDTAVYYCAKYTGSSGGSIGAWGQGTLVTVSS
VL: SYELTQPPSVSVSPGQTARITCSGGGRYYYGWYQQKPGQAPVTVIYANDKRPSGIPERFSGSNSGSTTTLTISGVQAEDEADYYCGSAETSSYVFGGGTKLTVLG
notes: also called humanized G9

Further lines, the binder ahead of its results:

B3: Humanized Ab #H7-H4.00/L4.29 (antibody, human IgG1, kappa)
heavy: not shown
light: SYELTQPPSVSVSPGQTARITCSGGSGRYYYGWYQQKPGQAPVTVIYSSTHRPSGIPERFSGSNSGSTTTLTISGVQAEDEADYYCGTADSSSYVFGGGTKLTVLGTVAAPSVFIFPPSDEQLKSGTASVVCLLNNFYPREAKVQWKVDNALQSGNSQESVTEQDSKDSTYSLSSTLTLSKADYEKHKVYACEVTHQGLSSPVTKSFNRGEC
notes: also called humanized anti-PAD4 antibody derived from H7 (IgG1 kappa)
Kd [3]: 8.28 nM
koff [3]: 0.000507 s⁻¹
kon [3]: 61300 M⁻¹ s⁻¹
EC50 (read off the curve) [4]: ~3 ng/mL
O.D. 490/630 at 0 µg/mL (blank) [4]: 0.083
O.D. 490/630 at 0.000064 µg/mL [4]: 0.13
O.D. 490/630 at 0.00032 µg/mL [4]: 0.269
O.D. 490/630 at 0.0016 µg/mL [4]: 0.766
O.D. 490/630 at 0.008 µg/mL [4]: 1.72
O.D. 490/630 at 0.04 µg/mL [4]: 2.1
O.D. 490/630 at 0.2 µg/mL [4]: 2.07
O.D. 490/630 at 1 µg/mL [4]: 2.08

B4: Humanized Ab #G8-H4.00/L4.29 (antibody, human IgG1, kappa, V domains shown)
VH: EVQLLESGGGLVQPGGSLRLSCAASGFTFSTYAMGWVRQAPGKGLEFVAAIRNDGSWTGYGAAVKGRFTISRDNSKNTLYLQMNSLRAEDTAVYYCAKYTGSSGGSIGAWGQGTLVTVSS
VL: B1 VL with L44T, S64N, T67S, V69T
notes: also called humanized anti-PAD4 antibody derived from G8 (IgG1 kappa); G8 VH H4.00 / VL L4.29
Kd [3]: 1.95 nM
koff [3]: 0.0002 s⁻¹
kon [3]: 103000 M⁻¹ s⁻¹
O.D. 490/630 at 0.0078125 µg/mL [2]: 1.2
O.D. 490/630 at 0.015625 µg/mL [2]: 1.55
O.D. 490/630 at 0.03125 µg/mL [2]: 1.88
O.D. 490/630 at 0.0625 µg/mL [2]: 1.88
O.D. 490/630 at 0.125 µg/mL [2]: 1.85
O.D. 490/630 at 0.25 µg/mL [2]: 1.84
O.D. 490/630 at 0.5 µg/mL [2]: 1.82
O.D. 490/630 at 1 µg/mL [2]: 1.8
EC50 (read off the curve) [4]: ~2 ng/mL
O.D. 490/630 at 0 µg/mL (blank) [4]: 0.069
O.D. 490/630 at 0.000064 µg/mL [4]: 0.139
O.D. 490/630 at 0.00032 µg/mL [4]: 0.287
O.D. 490/630 at 0.0016 µg/mL [4]: 0.851
O.D. 490/630 at 0.008 µg/mL [4]: 1.79
O.D. 490/630 at 0.04 µg/mL [4]: 2.12
O.D. 490/630 at 0.2 µg/mL [4]: 2.1
O.D. 490/630 at 1 µg/mL [4]: 2.06

B5: H7-derived, humanized anti-PAD4 antibody (IgG4A) (antibody)
heavy: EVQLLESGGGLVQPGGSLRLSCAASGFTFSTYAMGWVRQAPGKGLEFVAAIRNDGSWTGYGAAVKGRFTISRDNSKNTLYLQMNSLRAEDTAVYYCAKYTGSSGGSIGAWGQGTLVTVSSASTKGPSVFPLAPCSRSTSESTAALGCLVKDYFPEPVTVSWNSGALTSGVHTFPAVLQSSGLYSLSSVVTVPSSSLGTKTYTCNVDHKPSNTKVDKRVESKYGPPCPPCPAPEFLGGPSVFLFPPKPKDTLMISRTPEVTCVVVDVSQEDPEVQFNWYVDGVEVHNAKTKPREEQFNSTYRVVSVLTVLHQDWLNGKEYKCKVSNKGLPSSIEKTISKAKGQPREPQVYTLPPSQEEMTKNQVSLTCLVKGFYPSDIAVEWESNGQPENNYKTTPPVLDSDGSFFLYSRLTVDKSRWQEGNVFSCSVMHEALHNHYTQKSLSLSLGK
light: SYELTQPPSVSVSPGQTARITCSGGSGRYYYGWYQQKPGQAPVTVIYSSTHRPSGIPERFSGSNSGSTTTLTISGVQAEDEADYYCGTADSSSYVFGGGTKLTVLGQPKAAPSVTLFPPSSEELQANKATLVCLISDFYPGAVTVAWKADSSPVKAGVETTTPSKQSNNKYAASSYLSLTPEQWKSHRSYSCQVTHEGSTVEKTVAPTECS
notes: it may be this one; also called humanized anti-PAD4 antibody (IgG4A) derived from H7
EC50 (read off the curve) [5]: ~4 ng/mL

B6: humanized anti-PAD4 antibody derived from A11 (H4.00/L4.29, IgG1 kappa) (antibody, V domains shown)
VH: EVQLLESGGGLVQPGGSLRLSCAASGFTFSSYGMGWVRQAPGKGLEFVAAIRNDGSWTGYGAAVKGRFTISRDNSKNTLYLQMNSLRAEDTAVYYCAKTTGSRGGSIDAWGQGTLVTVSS
VL: B7 VL
notes: also called humanized A11
EC50 (read off the curve) [4]: ~3 ng/mL
O.D. 490/630 at 0 µg/mL (blank) [4]: 0.064
O.D. 490/630 at 0.000064 µg/mL [4]: 0.122
O.D. 490/630 at 0.00032 µg/mL [4]: 0.245
O.D. 490/630 at 0.0016 µg/mL [4]: 0.733
O.D. 490/630 at 0.008 µg/mL [4]: 1.7
O.D. 490/630 at 0.04 µg/mL [4]: 2.08
O.D. 490/630 at 0.2 µg/mL [4]: 2.08
O.D. 490/630 at 1 µg/mL [4]: 2.08
